Two molecules from article PMC11563578 (eLife, 2024) can be followed below.

The target of this assay is T1, RNA polymerase II subunit Rpb1 (S. cerevisiae, UniProt P04050 1-1733).
T1 construct: Rpb1, largest subunit of yeast RNA polymerase II; source: endogenous, S. cerevisiae; also the Δrpb4 RPB2-HFH strain
The experiment in a line: cross-linking; affinity-purified holo-pol II and ΔRpb4 pol II cross-linked with C1q2/C2q2 Q2linkers in a crosslinker swapping experiment (experiments I and II), pooled, MS; crosslinks identified with pLink2 and Nexus against the 12 pol II subunits. The settings on record: both partners purified.

T1 sequence (P04050 whole entry): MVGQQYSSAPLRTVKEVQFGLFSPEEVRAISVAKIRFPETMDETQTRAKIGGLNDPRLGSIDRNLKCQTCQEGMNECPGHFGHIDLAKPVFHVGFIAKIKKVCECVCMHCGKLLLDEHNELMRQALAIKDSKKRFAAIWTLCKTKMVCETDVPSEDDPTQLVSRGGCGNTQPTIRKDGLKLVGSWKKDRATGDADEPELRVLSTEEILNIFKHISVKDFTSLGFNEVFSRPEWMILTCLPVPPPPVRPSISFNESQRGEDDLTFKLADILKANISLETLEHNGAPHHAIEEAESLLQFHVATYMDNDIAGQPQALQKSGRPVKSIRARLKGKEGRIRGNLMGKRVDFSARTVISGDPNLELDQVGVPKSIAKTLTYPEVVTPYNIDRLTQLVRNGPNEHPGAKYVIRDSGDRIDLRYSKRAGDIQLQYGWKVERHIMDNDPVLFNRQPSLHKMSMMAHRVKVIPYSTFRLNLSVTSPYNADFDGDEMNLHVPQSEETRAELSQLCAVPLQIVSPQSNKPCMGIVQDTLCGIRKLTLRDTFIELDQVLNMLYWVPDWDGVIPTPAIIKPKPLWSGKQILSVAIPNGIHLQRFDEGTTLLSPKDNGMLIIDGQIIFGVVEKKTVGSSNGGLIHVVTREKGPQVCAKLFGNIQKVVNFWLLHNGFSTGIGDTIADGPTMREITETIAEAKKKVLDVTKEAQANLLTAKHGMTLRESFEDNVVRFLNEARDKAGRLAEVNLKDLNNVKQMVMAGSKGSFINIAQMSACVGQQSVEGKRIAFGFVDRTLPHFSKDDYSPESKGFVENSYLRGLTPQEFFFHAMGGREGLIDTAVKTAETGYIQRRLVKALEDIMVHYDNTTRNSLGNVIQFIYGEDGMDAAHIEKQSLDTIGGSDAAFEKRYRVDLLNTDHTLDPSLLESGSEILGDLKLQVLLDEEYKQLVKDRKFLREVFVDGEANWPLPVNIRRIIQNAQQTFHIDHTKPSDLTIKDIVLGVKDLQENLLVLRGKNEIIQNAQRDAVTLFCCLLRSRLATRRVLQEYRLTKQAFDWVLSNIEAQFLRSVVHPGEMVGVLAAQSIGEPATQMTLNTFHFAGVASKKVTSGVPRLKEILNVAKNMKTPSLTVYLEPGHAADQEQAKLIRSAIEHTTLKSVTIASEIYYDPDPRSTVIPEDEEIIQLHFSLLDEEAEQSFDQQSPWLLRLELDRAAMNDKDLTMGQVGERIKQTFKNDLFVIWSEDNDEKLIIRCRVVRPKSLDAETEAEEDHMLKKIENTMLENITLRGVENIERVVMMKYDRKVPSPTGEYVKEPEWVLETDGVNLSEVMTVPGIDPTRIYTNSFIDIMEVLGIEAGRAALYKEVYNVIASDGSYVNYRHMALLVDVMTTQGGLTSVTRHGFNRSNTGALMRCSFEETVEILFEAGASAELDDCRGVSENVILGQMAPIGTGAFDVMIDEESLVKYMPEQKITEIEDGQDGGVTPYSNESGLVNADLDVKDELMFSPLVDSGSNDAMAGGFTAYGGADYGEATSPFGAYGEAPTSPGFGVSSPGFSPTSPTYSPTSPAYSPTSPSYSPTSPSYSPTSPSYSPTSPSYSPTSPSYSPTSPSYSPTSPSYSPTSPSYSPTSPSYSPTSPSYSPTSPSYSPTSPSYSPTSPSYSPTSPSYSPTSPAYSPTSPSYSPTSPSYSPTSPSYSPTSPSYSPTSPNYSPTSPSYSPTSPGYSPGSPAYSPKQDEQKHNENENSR

B1: RNA polymerase II subunit Rpb7 (natural protein, S. cerevisiae, UniProt P34087 1-171, looked up)
chain: MFFIKDLSLNITLHPSFFGPRMKQYLKTKLLEEVEGSCTGKFGYILCVLDYDNIDIQRGRILPTDGSAEFNVKYRAVVFKPFKGEVVDGTVVSCSQHGFEVQVGPMKVFVTKHLMPQDLTFNAGSNPPSYQSSEDVITIKSRIRVKIEGCISQVSSIHAIGSIKEDYLGAI
notes: Rpb7, subunit of yeast RNA polymerase II; also called Rbp7; source: endogenous, S. cerevisiae; sub-stoichiometric from the Δrpb4 RPB2-HFH strain
With B1, the binding result was “binds”.

B2: RNA polymerase II subunit Rpb9 (natural protein, S. cerevisiae, UniProt P27999 1-122, looked up)
chain: MTTFRFCRDCNNMLYPREDKENNRLLFECRTCSYVEEAGSPLVYRHELITNIGETAGVVQDIGSDPTLPRSDRECPKCHSRENVFFQSQQRRKDTSMVLFFVCLSCSHIFTSDQKNKRTQFS
notes: Rpb9, subunit of yeast RNA polymerase II; source: endogenous, S. cerevisiae; also the Δrpb4 RPB2-HFH strain
For B2, the binding result is given as “binds”.
